Experimental findings from patent publication US20230392126A1, “TISSUE ORGANOIDS” (priority 2016, published 2023) are described below.

The nature of this data set: Stability and tolerance of transplanted skin organoids in immunocompetent hosts. Format: in vivo, mouse. Conditions: isogenic hosts CD1 and C57BL/6. An excerpt:
For grafting with skin organoids, CD1 (isogenic mouse keratinocyte transplantation) males or Nude (human keratinocyte transplantation) females with the ages of 6-8 weeks were anesthetized. A silicone chamber bottom with the interior diameter of 0.8 cm and the exterior diameter of 1.5 cm was implanted on its shaved dorsal mid-line skin, which was used to hold the skin graft. A chamber cap was installed to seal the chamber right after a piece of graft was implanted. About one week later, the chamber cap was removed to expose the graft to air. A single dose of 0.2 mg α-CD4 (GK1.5) and 0.2 mg α-CD8 (2.43.1) antibodies was administered intraperitoneally for skin grafting.
Optical imaging was performed in the integrated small animal imaging research resource (iSAIRR) at the University of Chicago. Bioluminescence images were acquired on an IVIS Spectrum (Caliper Life Sciences®, Alameda, CA) after animal was injected with luciferin (100 mg/kg). […]
Grafted cells in immunocompetent hosts readily expressed exogenous genes, such as Luciferase and Histone H2B-RFP (FIG. 1B-D), which were transduced to the cells with lentivirus. […] Importantly, the tissue organoid with expression of exogenous gene, such as Luciferase and H2B-RFP, was stable in vivo for more than 5 months in immunocompetent hosts, as determined by intravital bioluminescence imaging and tissue histology. […]

B1: hBChE: modified human butyrylcholinesterase (E30-6, SEQ ID NO: 41), cocaine hydrolase, expressed from engineered epidermal cells / skin grafts (protein)
chain: MHSKVTIICIRFLFWFLLLCMLIGKSHTEDDIIIATKNGKVRGMNLTVFGGTVTAFLGIPYAQPPLGRLRFKKPQSLTKWSDIWNATKYANSCCQNIDQSFPGFHGSEMWNPNTDLSEDCLYLNVWIPAPKPKNATVLIWIYGGGFQTGTSSLHVYDGKFLARVERVIVVSMNYRVGALGFLALPGNPEAPGNMGLFDQQLALQWVQKNIAAFGGNPKSVTLFGESSGAASVSLHLLSPGSHSLFTRAILQSGSANAPWAVTSLYEARNRTLNLAKLTGCSRENETEIIKCLRNKDPQEILLNEAFVVPYGTALGVNFGPTVDGDFLTDMPDILLELGQFKKTQILVGVNKDEGTWFLVGGAPGFSKDNNSIITRKEFQEGLKIFFPGVSEFGKESILFHYTDWVDDQRPENYREALGDVVGDYNFICPALEFTKKFSEWGNNAFFYYFEHRSSKLPWPEWMGVMHGYEIEFVFGLPLERRDNYTKAEEILSRSIVKRWANFAKYGNPNETQNNSTSWPVFKSTEQKYLTLNTESTRIMTKLRAQQCRFWTSFFPKVLEMTGNIDEAEWEWKAGFHRWNNYMMDWKNQFNDYTSKKESCVGL
modifications: Human mutant BChE
With B1, the “time without significant rejection of skin grafts” value is recorded as “at least 5 months”.
